# Legend:
# O=C(O)CCCCCO = experiment: purified protein, by the assay type; settings: pH 7.5
# O=C(O)CCCO = experiment: purified protein, by the assay type; settings: other: ATP/NADPH dependent reduction; pH 7.5
# CCCC=O [1] = experiment: AR kinetics, aldehyde reduction followed by NAD(P)H oxidation; format: biochemical, Pseudomonas aeruginosa; settings: other: butyraldehyde, pH 7.5
# Text: (§1) 28 aldehyde reductases from different bacteria were cloned and overexpressed in E. coli. Enzymes purified using affinity chromatography on Ni-NTA resin were screened for reductase activity with adipaldehyde and butyraldehyde in presence of both NADPH and NADH (Table 5). Butyraldehyde was used as a substrate substitute for 4-oxo-butanal, which is not commercially available. Reactions were followed spectrophotometrically, by cofactor oxidation at 340 nm.
# (§2) Enzyme activity of purified ARs was measured spectrophotometrically in 96-well plates Reaction mixtures contained 100 mM HEPES buffer (pH 7.5), 0.4 mM NADH/NADPH, 10 mM adipaldehyde or butylaldehyde, and proteins (10 μg for adipaldehyde screen, 2 μg for butyraldehyde screen) in a final volume of 200 μL Reaction mixture for adipaldehyde screening contained 1.8% DMSO. Enzyme reactions were monitored by following the decrease in absorbance at 340 nm (ε340 nm=6,220/M·cm) due to oxidation of NAD(P)H to NAD(P)+.
# (§3) ARs RHA1_ro05279, PA1146, SC00229, PP_3370 were characterised for saturation with adipaldehyde, PP_3370, PSPTO_2097, RHA1_ro05279, SC00229, TM_0111, PA1146 were characterised for butyraldehyde saturation (Table 10). […] For both substrates maximal kcat/Km with minimal Km values was shown by AR PP 3370 from Pseudomonas putida.
# O=CCCCCC=O = experiment: as above; format: biochemical, Pseudomonas aeruginosa; settings: other: adipaldehyde; cofactor NADH; 1,8% DMSO; pH 7.5
# Text: as §1, §2, §3
# CCCC=O [2] = experiment: as above; format: biochemical, Pseudomonas syringae; settings: other: butyraldehyde; cofactor NADPH; pH 7.5
# Text: as §1, §2, §3
substance,measurement,setting,value
"Mycobacterium paratuberculosis carboxylate reductase MAP_1040c, SEQ ID NO: 38 (Mycobacterium avium subsp. paratuberculosis MAP4)",Km,O=C(O)CCCCCO,70.1 ± 7.04 mM
"Mycobacterium smegmatis carboxylate reductase MSMEG_2956, SEQ ID NO: 70 (Mycolicibacterium smegmatis MC2 155)",Km,O=C(O)CCCO,69.57 ± 4.16 mM
same,kcat,O=C(O)CCCO,0.513 ± 0.017 s⁻¹
same,kcat/Km,O=C(O)CCCO,7.37 ± 0.24 M⁻¹ s⁻¹
"Mycobacterium smegmatis carboxylate reductase MSMEG_5739, SEQ ID NO: 37 (Mycolicibacterium smegmatis MC2 155)",Km,O=C(O)CCCO,37.84 ± 2.39 mM
same,kcat,O=C(O)CCCO,0.51 ± 0.017 s⁻¹
same,kcat/Km,O=C(O)CCCO,13.5 ± 0.45 M⁻¹ s⁻¹
"Mycobacterium smegmatis carboxylate reductase MSMEI_5586, SEQ ID NO: 35 (Mycolicibacterium smegmatis MC2 155)",Km,O=C(O)CCCO,19.63 ± 4.88 mM
same,kcat,O=C(O)CCCO,0.152 ± 0.013 s⁻¹
same,kcat/Km,O=C(O)CCCO,7.74 ± 0.66 M⁻¹ s⁻¹
"Pseudomonas aeruginosa aldehyde reductase PA1146, SEQ ID NO: 43 (Pseudomonas aeruginosa PAO1)",Km,CCCC=O [1]; cofactor NADH,15.6 ± 5.94 mM
same,kcat,CCCC=O [1]; cofactor NADH,9.01 ± 01.9 s⁻¹
same,kcat/Km,CCCC=O [1]; cofactor NADH,(5.76 ± 1.22) × ×10^2 M^−1 · s^−1
same,Km,CCCC=O [1]; cofactor NADPH,3.37 ± 0.9 mM
same,kcat,CCCC=O [1]; cofactor NADPH,0.84 ± 0.08 s⁻¹
same,kcat/Km,CCCC=O [1]; cofactor NADPH,(2.49 ± 0.24) × ×10^2 M^−1 · s^−1
same,Km,O=CCCCCC=O,9.0 ± 1.99 mM
same,kcat,O=CCCCCC=O,5.45 ± 0.56 s⁻¹
same,kcat/Km,O=CCCCCC=O,(6.02 ± 0.06) × ×10^2 M^−1 · s^−1
"Pseudomonas syringae aldehyde reductase PSPTO_2097, SEQ ID NO: 46 (Pseudomonas syringae pv. tomato str. DC3000)",Km,CCCC=O [2],10.3 ± 1.06 mM
same,kcat,CCCC=O [2],12.2 ± 0.63 s⁻¹
same,kcat/Km,CCCC=O [2],(1.18 ± 0.06) × ×10^3 M^−1 · s^−1

# From patent publication US12371675B2, “Process and microorganism for synthesis of adipic acid from carboxylic acids” (THE GOVERNING COUNCIL OF THE UNIVERSITY OF TORONTO, priority 2015, dated 2025)
